Experimental data published in US20110263454A1, “Methods of Identifying Functional Characteristics of Promoters, Transcription Modifying Proteins and Transcription Modulating Agents” (Salk Institute for Biological Studies, priority 2008, published 2011).

Columns and labels:
Bmal1 promoter = test: NHR-promoter luciferase screen, Bmal1 promoter; assay type: cell-based, mouse; conditions: for Luc. act., normalized to lacZ / Normalized Luc. act., normalized to control: Bmal1 promoter, HR component without or with ligand; for mBmal1 promoter reporter activity: transcription factor +/- ligand, control = 1.00
Procedure, shortened: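 CV-1 cells co-transfected with 50 ng NHR (V5H6-tagged, pcDNA3.1; homodimer or RXR heterodimer), 100 ng Bmal1 promoter-luciferase and 50 ng LacZ. Luciferase was normalized to LacZ and to a no-NHR/ligand control.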

mABCA1 promoter = test: NHR-promoter luciferase screen, mABCA1 promoter; assay type: cell-based, mouse; conditions: for Luc. act., normalized to lacZ / Normalized Luc. act., normalized to control: ABCA1 promoter, hormone receptor with or without its ligand; for Normalized Luc. act., normalized to control: relative to control; for mABCA1 promoter reporter activity: transcription factor +/- ligand, control = 1.00
Procedure, shortened: (§1)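 CV-1 cells were co-transfected with 50 ng NHR (homodimer or NHR/RXR heterodimer), 100 ng promoter-luciferase construct and 50 ng LacZ. Luciferase was normalized to LacZ and to a no-NHR/no-ligand control.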

mCAR promoter = test: NHR-promoter luciferase screen, mCAR promoter; assay type: cell-based, mouse; conditions: for luciferase activity normalized to lacZ activity and to a control, mCAR: mCAR promoter-luciferase, CV-1 cells, NHR +/- ligand, control = 1.00; for Luc. act., normalized to lacZ / Normalized Luc. act., normalized to control: mCAR promoter, HR/ligand component
Procedure, shortened: as §1

hG6PD promoter = test: NHR-promoter luciferase screen, hG6PD promoter; assay type: cell-based, human; conditions: for Luc. act., normalized to lacZ / Normalized Luc. act., normalized to control: G6PD promoter reporter, co-transfected HR, without or with its ligand; for Normalized Luc. act., normalized to control: relative to control; for luciferase activity normalized to lacZ activity and to a control, hG6PD: hG6PD promoter-luciferase, CV-1 cells, NHR +/- ligand, control = 1.00
Procedure, shortened: as §1

RevErba promoter = test: NHR-promoter luciferase screen, RevErba (RVRa) promoter; assay type: cell-based; set-up: key to mRevErba promoter reporter activity / Normalized Luc. act., normalized to control: luciferase activity normalized to lacZ and to control (no NHR/ligand); conditions: for Luc. act., normalized to lacZ / Normalized Luc. act., normalized to control / normalized Luc. act. on a logarithmic scale (column without head, Table 33) / negative reciprocal of normalized Luc. act. (fold repression; Table 33): RVRa promoter; for Luc. act., normalized to lacZ / Normalized Luc. act., normalized to control: HR component without or with ligand; for normalized Luc. act. on a logarithmic scale (column without head, Table 33): log10 of activity normalized to control; for mRevErba promoter reporter activity: transcription factor +/- ligand, control = 1.00; for negative reciprocal of normalized Luc. act. (fold repression; Table 33): given only where activity is below control
Procedure, shortened: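 CV-1 cells co-transfected with NHR (pcDNA3.1, C-terminal V5H6 tag) as homodimer or RXR heterodimer, RevErbα promoter–luciferase reporter and LacZ transfection control; ligand added where applicable. Luciferase normalized to LacZ and to no-NHR/no-ligand control.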

Molecule | Luc. act., normalized to lacZ (Bmal1 promoter) | Normalized Luc. act., normalized to control (Bmal1 promoter) | mBmal1 promoter reporter activity (Bmal1 promoter) | Luc. act., normalized to lacZ (mABCA1 promoter) | Normalized Luc. act., normalized to control (mABCA1 promoter) | mABCA1 promoter reporter activity (mABCA1 promoter) | luciferase activity normalized to lacZ activity and to a control, mCAR (mCAR promoter) | Luc. act., normalized to lacZ (mCAR promoter) | Normalized Luc. act., normalized to control (mCAR promoter) | Luc. act., normalized to lacZ (hG6PD promoter) | Normalized Luc. act., normalized to control (hG6PD promoter) | luciferase activity normalized to lacZ activity and to a control, hG6PD (hG6PD promoter) | Luc. act., normalized to lacZ (RevErba promoter) | Normalized Luc. act., normalized to control (RevErba promoter) | normalized Luc. act. on a logarithmic scale (column without head, Table 33) (RevErba promoter) | mRevErba promoter reporter activity (RevErba promoter) | negative reciprocal of normalized Luc. act. (fold repression; Table 33) (RevErba promoter)
CAR: Constitutive Androstane Receptor (NR1I3), cDNA driver (protein, UniProt Q14994 1-352, looked up) Nuclear receptor subfamily 1 …: MASREDELRNCVVCGDQATGYHFNALTCEGCKGFFRRTVSKSIGPTCPFAGSCEVSKTQRRHCPACRLQKCLDAGMRKDMILSAEALALRRAKQAQRRAQQTPVQLSKEQEELIRTLLGAHTRHMGTMFEQFVQFRPPAHLFIHHQPLPTLAPVLPLVTHFADINTFMVLQVIKFTKDLPVFRSLPIEDQISLLKGAAVEICHIVLNTTFCLQTQNFLCGPLRYTIEDGARVSPTVGFQVEFLELLFHFHGTLRKLQLQEPEYVLLAAMALFSPDRPGVTQRDEIDQLQEEMALTLQSYIKGQQRRPRDRFLYAKLLGLLAELRSINEAYGYQIQHIQGLSAMMPLLQEICS | 16.4 | 1.1 | 1.05 | 6.1 | 1.1 | 1.08 | 0.51 | 19.41 | 0.5 | 46.4 | 1.2 | 1.24 | 40.00 | 1.4 | 0.16 | 1.43 | –
FXR: Farnesoid X Receptor (NR1H4), cDNA driver (protein, UniProt Q96RI1 1-486, looked up) Bile acid receptor: MVMQFQGLENPIQISPHCSCTPSGFFMEMMSMKPAKGVLTEQVAGPLGQNLEVEPYSQYSNVQFPQVQPQISSSSYYSNLGFYPQQPEEWYSPGIYELRRMPAETLYQGETEVAEMPVTKKPRMGASAGRIKGDELCVVCGDRASGYHYNALTCEGCKGFFRRSITKNAVYKCKNGGNCVMDMYMRRKCQECRLRKCKEMGMLAECMYTGLLTEIQCKSKRLRKNVKQHADQTVNEDSEGRDLRQVTSTTKSCREKTELTPDQQTLLHFIMDSYNKQRMPQEITNKILKEEFSAEENFLILTEMATNHVQVLVEFTKKLPGFQTLDHEDQIALLKGSAVEAMFLRSAEIFNKKLPSGHSDLLEERIRNSGISDEYITPMFSFYKSIGELKMTQEEYALLTAIVILSPDRQYIKDREAVEKLQEPLLDVLQKLCKIHQPENPQHFACLLGRLTELRTFNHHHAEMLMSWRVNDHKFTPLLCEIWDVQ | 15.6 | 1.0 | 1.00 | 14.0 | 2.5 | 2.50 | 0.88 | 33.6 | 0.9 | 42.6 | 1.1 | 1.14 | 31.7 | 1.1 | 0.05 | 1.13 | –
PPARd: Peroxisome proliferator activated receptor δ (NR1C2), cDNA driver (protein, UniProt Q03181 1-441, looked up) Peroxisome …: MEQPQEEAPEVREEEEKEEVAEAEGAPELNGGPQHALPSSSYTDLSRSSSPPSLLDQLQMGCDGASCGSLNMECRVCGDKASGFHYGVHACEGCKGFFRRTIRMKLEYEKCERSCKIQKKNRNKCQYCRFQKCLALGMSHNAIRFGRMPEAEKRKLVAGLTANEGSQYNPQVADLKAFSKHIYNAYLKNFNMTKKKARSILTGKASHTAPFVIHDIETLWQAEKGLVWKQLVNGLPPYKEISVHVFYRCQCTTVETVRELTEFAKSIPSFSSLFLNDQVTLLKYGVHEAIFAMLASIVNKDGLLVANGSGFVTREFLRSLRKPFSDIIEPKFEFAVKFNALELDDSDLALFIAAIILCGDRPGLMNVPRVEAIQDTILRALEFHLQANHPDAQYLFPKLLQKMADLRQLVTEHAQMMQRIKKTETETSLHPLLQEIYKDMY | 11.2 | 0.7 | 0.72 | 13.8 | 2.5 | 2.46 | 0.79 | 30.1 | 0.8 | 48.7 | 1.3 | 1.30 | 25.3 | 0.9 | −0.04 | 0.90 | −1.106
RARg: Retinoic acid receptor γ (NR1B3), nuclear hormone receptor cDNA driver (protein, UniProt P13631 1-454, looked up) Retinoic acid receptor gamma: MATNKERLFAAGALGPGSGYPGAGFPFAFPGALRGSPPFEMLSPSFRGLGQPDLPKEMASLSVETQSTSSEEMVPSSPSPPPPPRVYKPCFVCNDKSSGYHYGVSSCEGCKGFFRRSIQKNMVYTCHRDKNCIINKVTRNRCQYCRLQKCFEVGMSKEAVRNDRNKKKKEVKEEGSPDSYELSPQLEELITKVSKAHQETFPSLCQLGKYTTNSSADHRVQLDLGLWDKFSELATKCIIKIVEFAKRLPGFTGLSIADQITLLKAACLDILMLRICTRYTPEQDTMTFSDGLTLNRTQMHNAGFGPLTDLVFAFAGQLLPLEMDDTETGLLSAICLICGDRMDLEEPEKVDKLQEPLLEALRLYARRRRPSQPYMFPRMLMKITDLRGISTKGAERAITLKMEIPGPMPPLIREMLENPEMFEDDSSQPGPHPNASSEDEVPGGQGKGGLKSPA | 19.1 | 1.2 | 1.22 | 26.4 | 4.7 | 4.69 | 1.24 | 47.1 | 1.2 | 58.8 | 1.6 | 1.57 | 39.6 | 1.4 | 0.15 | 1.42 | –
PXR: Pregnane X Receptor (NR1I2), cDNA driver (protein, UniProt O75469 1-434, looked up) Nuclear receptor subfamily 1 …: MEVRPKESWNHADFVHCEDTESVPGKPSVNADEEVGGPQICRVCGDKATGYHFNVMTCEGCKGFFRRAMKRNARLRCPFRKGACEITRKTRRQCQACRLRKCLESGMKKEMIMSDEAVEERRALIKRKKSERTGTQPLGVQGLTEEQRMMIRELMDAQMKTFDTTFSHFKNFRLPGVLSSGCELPESLQAPSREEAAKWSQVRKDLCSLKVSLQLRGEDGSVWNYKPPADSGGKEIFSLLPHMADMSTYMFKGIISFAKVISYFRDLPIEDQISLLKGAAFELCQLRFNTVFNAETGTWECGRLSYCLEDTAGGFQQLLLEPMLKFHYMLKKLQLHEEEYVLMQAISLFSPDRPGVLQHRVVDQLQEQFAITLKSYIECNRPQPAHRFLFLKIMAMLTELRSINAQHTQRLLRIQDIHPFATPLMQELFGITGS | 31.2 | 2.0 | 2.00 | 15.2 | 2.7 | 2.72 | 1.49 | 56.8 | 1.5 | 42.5 | 1.1 | 1.14 | 42.5 | 1.5 | 0.18 | 1.52 | –
RXRb: Retinoic X Receptor β (NR2B2), cDNA driver (protein, UniProt P28702 1-533, looked up) Retinoic acid receptor …: MSWAARPPFLPQRHAAGQCGPVGVRKEMHCGVASRWRRRRPWLDPAAAAAAAVAGGEQQTPEPEPGEAGRDGMGDSGRDSRSPDSSSPNPLPQGVPPPSPPGPPLPPSTAPSLGGSGAPPPPPMPPPPLGSPFPVISSSMGSPGLPPPAPPGFSGPVSSPQINSTVSLPGGGSGPPEDVKPPVLGVRGLHCPPPPGGPGAGKRLCAICGDRSSGKHYGVYSCEGCKGFFKRTIRKDLTYSCRDNKDCTVDKRQRNRCQYCRYQKCLATGMKREAVQEERQRGKDKDGDGEGAGGAPEEMPVDRILEAELAVEQKSDQGVEGPGGTGGSGSSPNDPVTNICQAADKQLFTLVEWAKRIPHFSSLPLDDQVILLRAGWNELLIASFSHRSIDVRDGILLATGLHVHRNSAHSAGVGAIFDRVLTELVSKMRDMRMDKTELGCLRAIILFNPDAKGLSNPSEVEVLREKVYASLETYCKQKYPEQQGRFAKLLLRLPALRSIGLKCLEHLFFFKLIGDTPIDTFLMEMLEAPHQLA | 12.5 | 0.8 | 0.80 | 11.1 | 2.0 | 1.97 | 1.27 | 48.6 | 1.3 | 23.1 | 0.6 | 0.62 | 17.38 | 0.6 | −0.21 | 0.62 | −1.609
